This is an account of results in patent US20170355768A1 (Bristol-Myers Squibb, published 2017).

In this test the target is T1, human SLAM family member 7 (hSLAMF7) expressed on A20-hSLAMF7-GFP cells (human, UniProt Q9NQ25 23-335).
T1 construct: also called CS1; CS1-L
Kind of test: flow cytometry, 6.25 ug/ml Elotuzumab on A20-hSLAMF7-GFP cells, anti-human IgG-PE secondary. As to the method: FIG. 3. Elotuzumab binding to hSLAMF7 expressed in A20 cells was confirmed by flow cytometry. A20-GFP or A20-hSLAMF7-GFP cells were incubated with 6.25 ug/ml Elotuzumab (BMS), washed twice and incubated with anti-human IgG-PE secondary antibody. The frequency of cells staining positive for GFP and hSLAMF7 is shown at 0 days.
To determine whether hSLAMF7 expressed in A20 is recognized by Elotuzumab, A20-GFP and A20-hSLAMF7-GFP cells were stained with Elotuzumab. A20-GFP or A20-hSLAMF7-GFP cells were incubated with 6.25 ug/ml Elotuzumab (BMS), washed twice and incubated with anti-human IgG-PE secondary antibody. The frequency of cells staining positive for GFP and hSLAMF7 was determined using flow cytometry.

B1: Elotuzumab (antibody, V domains shown)
VH: EVQLVESGGGLVQPGGSLRLSCAASGFDFSRYWMSWVRQAPGKGLEWIGEINPDSSTINYAPSLKDKFIISRDNAKNSLYLQMNSLRAEDTAVYYCARPDGNYWYFDVWGQGTLVTVSS
VL: DIQMTQSPSSLSASVGDRVTITCKASQDVGIAVAWYQQKPGKVPKLLIYWASTRHTGVPDRFSGSGSGTDFTLTISSLQPEDVATYYCQQYSSYPYTFGQGTKVEIK
notes: also called BMS-901608; HuLuc63
With B1, the binding result is “binds”.
